Here are results for one molecule from paper doi:10.1101/2025.08.18.670902, “Pyrimethamine inhibits mutant NRF2 as a molecular glue” (bioRxiv, 2025).

For the test, the target named is T1, Kelch fragment (Ala321-Glu611 of human KEAP1 protein) (human, UniProt Q14145 321-611, biotinylated (site not stated)).
T1 construct: KEAP1, human, Kelch fragment Ala321-Glu611, printed MW 34,038.03 Da; Captured on a streptavidin chip through biotin; also called Kelch fragment of KEAP1; biotinylated Kelch; source: expressed in vitro, purified, biotinylated, validated by LC-MS
T1 sequence (Q14145 321-611): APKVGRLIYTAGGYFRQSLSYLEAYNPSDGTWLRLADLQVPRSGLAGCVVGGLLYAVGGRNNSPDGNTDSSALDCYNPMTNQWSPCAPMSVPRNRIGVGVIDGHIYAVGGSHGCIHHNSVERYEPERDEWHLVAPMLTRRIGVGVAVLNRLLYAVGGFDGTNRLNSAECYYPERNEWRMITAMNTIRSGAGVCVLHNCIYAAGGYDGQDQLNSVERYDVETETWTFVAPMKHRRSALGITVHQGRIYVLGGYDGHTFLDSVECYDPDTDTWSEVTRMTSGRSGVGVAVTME
In words: SPR; Biacore S200, biotinylated Kelch immobilised on a streptavidin chip; peptide analyte in 2-fold dilutions 200 μM to 0.39 μM, 30 μl/min, 90 s association, 180 s dissociation, analysis at 15 °C; without PYR. As to conditions: both partners purified.

B1: DLG^WT peptide (NRF2 residues 17-40) (peptide)
peptide: MDLIDILWRQDIDLGVSREVFDFS
notes: NRF2 (NFE2L2), human, residues 17-40 with the DLG motif; also called 24-mer peptide; source: synthetic peptide
Turning to B1, the binding result was “binds”.
